# Reference: patent US20160291016
# T1: phosphatidylinositol(4) phosphate 5 kinase type 1 gamma (PIPK1γ) of mouse osteoblasts, O70161
# T1 chain: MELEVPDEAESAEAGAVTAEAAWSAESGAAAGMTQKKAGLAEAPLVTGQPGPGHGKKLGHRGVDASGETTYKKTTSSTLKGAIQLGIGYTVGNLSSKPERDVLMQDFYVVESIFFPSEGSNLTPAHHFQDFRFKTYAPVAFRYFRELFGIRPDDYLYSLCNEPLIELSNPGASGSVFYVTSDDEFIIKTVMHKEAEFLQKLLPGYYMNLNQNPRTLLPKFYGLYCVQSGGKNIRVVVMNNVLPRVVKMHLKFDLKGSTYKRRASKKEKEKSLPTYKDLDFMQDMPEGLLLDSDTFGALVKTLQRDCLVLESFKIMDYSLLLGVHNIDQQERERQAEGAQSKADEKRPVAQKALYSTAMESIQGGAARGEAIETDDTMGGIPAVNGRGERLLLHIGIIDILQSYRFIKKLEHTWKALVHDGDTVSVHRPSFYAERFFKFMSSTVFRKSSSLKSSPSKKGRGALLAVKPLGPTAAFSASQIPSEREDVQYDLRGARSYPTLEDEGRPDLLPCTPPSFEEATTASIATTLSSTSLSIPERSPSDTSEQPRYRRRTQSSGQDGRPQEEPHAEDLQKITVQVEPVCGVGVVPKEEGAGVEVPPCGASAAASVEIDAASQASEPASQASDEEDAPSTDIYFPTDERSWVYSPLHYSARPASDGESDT
# Biological target: T1, phosphatidylinositol(4) phosphate 5 …
protein,measurement,value
protein tyrosine phosphatase µ (PTPµ) of mouse osteoblasts (protein) ETFSGGCLFDEPYSTCGYSQADEDDFNWEQVNTLTKPTSDPWMPSGSFMLVNTSGKPEGQRAHLLLPQLKENDTHCIDFHYFVSSKSNAAPGLLNVYVKVNNGPLGNPIWNISGDPTRTWHRAELAISTFWPNFYQVIFEVVTSGHQGYLAIDEVKVLGHPCTRTPHFLRIQNVEVNAGQFATFQCSAIGRTVAGDRLWLQGIDVRDAPLKEIKVTSSRRFIASFNVVNTTKRDAGKYRCMICTEGGVGISNYAELVVKEPPVPIAPPQLASVGATYLWIQLNANSINGDGPIVAREVEYCTASGSWNDRQPVDSTSYKIGHLDPDTEYEISVLLTRPGEGGTGSPGPALRTRTKCADPMRGPRKLEVVEVKSRQITIRWEPFGYNVTRCHSYNLTVHYGYQVGGQEQVREEVSWDTDNSHPQHTITNLSPYTNVSVKLILMNPEGRKESQELTVQTDEDLPGAVPTESIQGSAFEEKIFLQWREPTQTYGVITLYEITYKAVSSFDPEIDLSNQSGRVSKLGNETHFLFFGLYPGTTYSFTIRASTAKGFGPPATNQFTTKISAPSMPAYEFETPLNQTDNTVTVMLKPAQSRGAPVSVYQIVVEEERPRRTKKTTEILKCYPVPIHFQNASILNSQYYFAAEFPADSLQAAQPFTIGDNKTYNGYWNTPLLPHKSYRIYYQAASRANGETKIDCVRVATKGAVTPKPVPEPEKQTDHTVKIAGVIAGILLFVIIFLGVVLVMKKRKLAKKRKETMSSTRQEMTVMVNSMDKSYAEQGTNCDEAFSFMGTHNLNGRSVSSPSSFTMKTNTLSTSVPNSYYPDETHTMASDTSSLAQPHTYKKREAADVPYQTGQLHPAIRVADLLQHITQMKCAEGYGFKEEYESFFEGQSAPWDSAKKDENRMKNRYGNIIAYDHSRVRLQMLEGDNNSDYINGNYIDGYHRPNHYIATQGPMQETIYDFWRMVWHENTASIIMVTNLVEVGRVKCCKYWPDDTEIYKDIKVTLIDTELLAEYVIRTFAVEKRGIHEIREIRQFHFTGWPDHGVPYHATGLLGFVRQVKSKSPPNAGPLVVHCSAGAGRTGCFIVIDIMLDMAEREGVVDIYNCVRELRSRRVNMVQTEEQYVFIHDAILEACLCGDTSIPASQVRSLYYDMNKLDPQTNSSQIKEEFRTLNMVTPTLRVEDCSIALLPRNHEKNRCMDILPPDRCLPFLITIDGESSNYINAALMDSYKQPSAFIVTQHPLPNTVKDFWRLVLDYHCTSVVMLNDVDPAQLCPQYWPENGVHRHGPIQVEFVSADLEEDIISRIFRIYNASRPQDGHRMVQQFQFLGWPMYRDTPVSKRSFLKLIRQVDKWQEEYNGGEGRTVVHCLNGGGRSGTFCAISIVCEMLRHQRTVDVFHAVKTLRNNKPNMVDLLDQYKFCYEVALEYLNSG,"tyrosine phosphorylation of PIPK1γ (immunoprecipitation with PIPK1γ antibody, blot with phospho-tyrosine antibody)",Phosphorylation levels of PIPK1γ were higher in osteoblasts from PTPµ^-/- than in those from WT mice
